The values below come from the supplement of paper PMC7877785.

± gives the uncertainty stated by the source.

The data set is described as follows: self-splicing fitness, log relative to wild type (ln ratio); higher = more splicing; Tetrahymena group I intron in knt gene, E. coli kanamycin selection, DiMSum; sequences stand for … in CUCUCU…GGAGGGAAAAGUUAUCAGGCAUGCACCUGGUAGCUAGUCUUUAAACCAAUAGAUUGCAUCGGUUUAAAAGGCAAGACCGUCAAAUUGCGGGAAAGGGGUCAACAGCCGUUCAGUACCAAGUCUCAGGGGAAACUUUGAGAUGGCCUUGCAAAGGGUAUGGUAAUAAGCUGACGGACAUGGUCCUAACCACGCAGCCAAGUCCUAAGUCAACAGAUCUUCUGUUGAUAUGGAUGCAGUUCACAGACUAAAUGUCGGUCGGGGAAGAUGUAUUCUUCUCAUAAGAUAUAGUCGGACCUCUCCUUAAUGGGAGCUAGCGGAUGAAGUGAUGCAACACUGGAGCCGCUGGGAACUAAUUUGUAUGCGAAAGUAUAUUGAUUAGUUUUGGAGUACUCGUGGUCG
Summed up:
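DiMSum derived fitness as the error-weighted combination of fold changes across replicates, kanamycin versus no kanamycin, normalised to wild type. E. coli BL21(DE3) held the library, which randomised all eight P1ex-region intron nucleotides within the knt kanamycin-resistance gene on pET-22b(+). Six replicate transformations grew overnight at 37°C or 30°C on LB agar with or without 25 μg/mL kanamycin, also containing 100 μg/mL carbenicillin, 50 μM IPTG and 0.2% rhamnose, and pooled colonies were amplicon-sequenced on an Illumina HiSeq 2500.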

Consider UAAGAGCAAUAUUACGACGU, for which the “self-splicing fitness (ln)” value is, setting by setting: (30 °C) -2.32 ± 0.33; (37 °C) -1.88 ± 0.39.
Regarding UAAGAGCAAUAUUACGAUCC, for the setting “30 °C”, the “self-splicing fitness (ln)” value is -1.81 ± 0.36.
Consider UAAGAGCAAUAUUACGAUCG, for which the “self-splicing fitness (ln)” value is -3.62 ± 0.17 (30 °C) and -1.53 ± 0.18 (37 °C).
Regarding UAAGAGCAAUAUUACGAUUC, where the note is “37 °C”, the “self-splicing fitness (ln)” value was -0.537 ± 0.43.
Consider UAAGAGCAAUAUUACGCGCG, for which the “self-splicing fitness (ln)” value (30 °C) is -1.38 ± 0.24 and the “self-splicing fitness (ln)” value (37 °C) was -1.35 ± 0.3.
Regarding UAAGAGCAAUAUUACGCUGA, the “self-splicing fitness (ln)” value (37 °C) is -1.15 ± 0.29.
The same measure, in the same setting: the figure for UAAGAGCAAUAUUACGCUGC is -1.15 ± 0.37.
In the case of UAAGAGCAAUAUUACGCUGU, the “self-splicing fitness (ln)” value reads like this: (30 °C) -3.35 ± 0.45; (37 °C) -2.22 ± 0.34.
For the sequence UAAGAGCAAUAUUACGGAGC, the “self-splicing fitness (ln)” value (30 °C) is -3.44 ± 0.4.
Turning to UAAGAGCAAUAUUACGGAGU, the “self-splicing fitness (ln)” value (30 °C) is -3.26 ± 0.23 and the “self-splicing fitness (ln)” value (37 °C) was -2.21 ± 0.25.
In the same order, the values of UAAGAGCAAUAUUACGGAUA are -2.84 ± 0.44 and -1.54 ± 0.4.
In the same order, the values of UAAGAGCAAUAUUACGUAAA are -3.2 ± 0.37 and -1.89 ± 0.33.
For UAAGAGCAAUAUUACGUCCA, in that order: -3.08 ± 0.34 and -2.4 ± 0.41.
Take UAAGAGCAAUAUUACGUCUU: the “self-splicing fitness (ln)” value (30 °C) is -3.28 ± 0.2 and the “self-splicing fitness (ln)” value (37 °C) was -1.49 ± 0.18.
As for UAAGAGCAAUAUUACGUGAC, the “self-splicing fitness (ln)” value (30 °C) is -3.63 ± 0.27 and the “self-splicing fitness (ln)” value (37 °C) is -2.8 ± 0.34.
In the same order, the values of UAAGAGCAAUAUUACGUGCU are -4.59 ± 0.31 and -2.09 ± 0.27.
In the same order, the values of UAAGAGCAAUAUUACGUGGC are -4.44 ± 0.27 and -2.2 ± 0.2.
In the same order, the values of UAAGAGCAAUAUUACGUGUA are -2.36 ± 0.36 and -2.21 ± 0.27.
For the sequence UAAGAGCAAUAUUACGUUAG, the “self-splicing fitness (ln)” value (30 °C) is -3.43 ± 0.24 and the “self-splicing fitness (ln)” value (37 °C) is -3.1 ± 0.27.
As to UAAGAGCAAUAUUACGUUUA, the “self-splicing fitness (ln)” value was -2.31 ± 0.12 (30 °C) and -1.36 ± 0.13 (37 °C).
In the same order, the values of UAAUAGCAAUAUUACGAAAA are -2.83 ± 0.26 and -1.59 ± 0.15.
In the case of UAAUAGCAAUAUUACGAACA, the “self-splicing fitness (ln)” value was -1.07 ± 0.14 (30 °C) and -0.685 ± 0.13 (37 °C).
With UAAUAGCAAUAUUACGAAGA, the “self-splicing fitness (ln)” value (37 °C) was -2.76 ± 0.31.
As for UAAUAGCAAUAUUACGAAGG, the “self-splicing fitness (ln)” value by setting is: (30 °C) -3.08 ± 0.17; (37 °C) -1.6 ± 0.17.
For UAAUAGCAAUAUUACGAAUG, in that order: -1.37 ± 0.11 and -0.382 ± 0.11.
For UAAUAGCAAUAUUACGACUA, in that order: -0.456 ± 0.11 and -0.0379 ± 0.13.
Take UAAUAGCAAUAUUACGAGAA: under “37 °C”, the “self-splicing fitness (ln)” value was -1.22 ± 0.26.
In the case of UAAUAGCAAUAUUACGAUCC, the “self-splicing fitness (ln)” value (30 °C) is -3.33 ± 0.44.
Consider UAAUAGCAAUAUUACGAUCU, for which the “self-splicing fitness (ln)” value is -1.4 ± 0.098 (30 °C) and -0.601 ± 0.12 (37 °C).
In the same order, the values of UAAUAGCAAUAUUACGAUUG are 0.193 ± 0.068 and 0.0133 ± 0.076.
For UAAUAGCAAUAUUACGCAAG, in that order: -1.92 ± 0.29 and -1.04 ± 0.25.
As to UAAUAGCAAUAUUACGCCCG, for the setting “37 °C”, the “self-splicing fitness (ln)” value is 0.42 ± 0.42.
For the sequence UAAUAGCAAUAUUACGCCUA, the “self-splicing fitness (ln)” value is -0.175 ± 0.16 (30 °C) and 0.0899 ± 0.19 (37 °C).
As to UAAUAGCAAUAUUACGCGAA, the “self-splicing fitness (ln)” value runs as follows: (30 °C) -3.51 ± 0.24; (37 °C) -0.873 ± 0.14.
In the same order, the values of UAAUAGCAAUAUUACGCGCC are -2.47 ± 0.34 and -1.39 ± 0.41.
For UAAUAGCAAUAUUACGCUCC, in that order: -1.74 ± 0.39 and -0.899 ± 0.32.
For UAAUAGCAAUAUUACGGAGU, in that order: -4.07 ± 0.27 and -2.82 ± 0.22.
With UAAUAGCAAUAUUACGGCCG, the “self-splicing fitness (ln)” value was -0.212 ± 0.12 (30 °C) and 0.0754 ± 0.16 (37 °C).
For UAAUAGCAAUAUUACGGCUA, in that order: 0.00533 ± 0.088 and 0.527 ± 0.094.
For UAAUAGCAAUAUUACGGCUG, in that order: -0.00933 ± 0.11 and -0.0273 ± 0.16.
For UAAUAGCAAUAUUACGGGAG, in that order: -2.84 ± 0.17 and -3.3 ± 0.22.
Regarding UAAUAGCAAUAUUACGGGUU, the “self-splicing fitness (ln)” value (30 °C) is -3.33 ± 0.24 and the “self-splicing fitness (ln)” value (37 °C) was -2.65 ± 0.21.
In the same order, the values of UAAUAGCAAUAUUACGGUAG are -3.43 ± 0.14 and -2.05 ± 0.14.
For UAAUAGCAAUAUUACGGUUG, in that order: -0.0942 ± 0.085 and -0.0839 ± 0.091.
Turning to UAAUAGCAAUAUUACGUACU, the “self-splicing fitness (ln)” value (30 °C) was -1.91 ± 0.094 and the “self-splicing fitness (ln)” value (37 °C) is -0.805 ± 0.088.
In the same order, the values of UAAUAGCAAUAUUACGUUCG are -0.563 ± 0.11 and 0.133 ± 0.12.
UACAAGCAAUAUUACGAAAC: the “self-splicing fitness (ln)” value (37 °C) is -1.61 ± 0.32.
For UACAAGCAAUAUUACGAAUU, the “self-splicing fitness (ln)” value was -2.48 ± 0.16 (30 °C) and -2.99 ± 0.26 (37 °C).
In the same order, the values of UACAAGCAAUAUUACGAGGG are -2.8 ± 0.14 and -1.47 ± 0.14.
Take UACAAGCAAUAUUACGAUAC: the “self-splicing fitness (ln)” value is -3.7 ± 0.44 (30 °C) and -2.34 ± 0.25 (37 °C).
In the same order, the values of UACAAGCAAUAUUACGCAUA are -2.07 ± 0.11 and -0.871 ± 0.11.
In the case of UACAAGCAAUAUUACGCCAC, the “self-splicing fitness (ln)” value (30 °C) is -2.95 ± 0.27.
In the case of UACAAGCAAUAUUACGCGGA, the “self-splicing fitness (ln)” value is, setting by setting: (30 °C) -1.85 ± 0.092; (37 °C) -1.21 ± 0.098.
In the same order, the values of UACAAGCAAUAUUACGCGGC are -3.59 ± 0.24 and -2.91 ± 0.31.
For the sequence UACAAGCAAUAUUACGCUAC, the “self-splicing fitness (ln)” value by setting is: (30 °C) -3.76 ± 0.29; (37 °C) -2.26 ± 0.21.
In the same order, the values of UACAAGCAAUAUUACGCUCU are -1.36 ± 0.087 and -0.0585 ± 0.11.
For UACAAGCAAUAUUACGGACA, in that order: -0.516 ± 0.087 and 0.0805 ± 0.083.
In the same order, the values of UACAAGCAAUAUUACGGACG are -0.321 ± 0.075 and 0.44 ± 0.097.
On to UACAAGCAAUAUUACGGACU, for which the “self-splicing fitness (ln)” value (30 °C) is -1.22 ± 0.079 and the “self-splicing fitness (ln)” value (37 °C) is -0.00357 ± 0.085.
In the same order, the values of UACAAGCAAUAUUACGGGUG are -0.523 ± 0.04 and -0.55 ± 0.054.
In the same order, the values of UACAAGCAAUAUUACGGUUA are -0.0426 ± 0.052 and -0.221 ± 0.063.
Regarding UACAAGCAAUAUUACGUCGG, the “self-splicing fitness (ln)” value is -2.46 ± 0.082 (30 °C) and -0.921 ± 0.088 (37 °C).
Regarding UACAAGCAAUAUUACGUGUU, the “self-splicing fitness (ln)” value reads like this: (30 °C) -2.85 ± 0.081; (37 °C) -1.58 ± 0.11.
In the same order, the values of UACAAGCAAUAUUACGUUGC are -4.71 ± 0.42 and -2.94 ± 0.27.
In the same order, the values of UACAAGCAAUAUUACGUUUC are -2.55 ± 0.2 and -1.72 ± 0.2.
As to UACCAGCAAUAUUACGACUG, the “self-splicing fitness (ln)” value by setting is: (30 °C) -4.48 ± 0.39; (37 °C) -3.05 ± 0.25.
For UACCAGCAAUAUUACGAGAG, in that order: -2.64 ± 0.12 and -1.12 ± 0.081.
Regarding UACCAGCAAUAUUACGAGAU, the “self-splicing fitness (ln)” value (30 °C) is -3.69 ± 0.21 and the “self-splicing fitness (ln)” value (37 °C) is -3.25 ± 0.13.
In the same order, the values of UACCAGCAAUAUUACGAGUA are -1.25 ± 0.085 and -1.69 ± 0.08.
UACCAGCAAUAUUACGAUCA: the “self-splicing fitness (ln)” value by setting is: (30 °C) -0.119 ± 0.07; (37 °C) -0.323 ± 0.09.
For UACCAGCAAUAUUACGAUGA, in that order: -0.0346 ± 0.056 and -0.119 ± 0.065.
As to UACCAGCAAUAUUACGAUGG, the “self-splicing fitness (ln)” value is -3.01 ± 0.11 (30 °C) and -1.25 ± 0.091 (37 °C).
In the same order, the values of UACCAGCAAUAUUACGCAGA are -1.24 ± 0.11 and -0.165 ± 0.11.
As to UACCAGCAAUAUUACGCAGC, the “self-splicing fitness (ln)” value (30 °C) was -2.72 ± 0.18 and the “self-splicing fitness (ln)” value (37 °C) is -1.87 ± 0.23.
Regarding UACCAGCAAUAUUACGCCGU, the “self-splicing fitness (ln)” value by setting is: (30 °C) -1.4 ± 0.14; (37 °C) -1.6 ± 0.23.
For UACCAGCAAUAUUACGCUUG, in that order: -1.01 ± 0.073 and -0.79 ± 0.095.
For UACCAGCAAUAUUACGGACC, the “self-splicing fitness (ln)” value is, setting by setting: (30 °C) -0.962 ± 0.071; (37 °C) -0.872 ± 0.086.
In the same order, the values of UACCAGCAAUAUUACGGAUG are -0.756 ± 0.055 and 0.494 ± 0.085.
